Laboratory results taken from US20110256062A1 (MEDICAL RESEARCH COUNCIL, published 2011).

Experiments:
[1] = biological target: full-length GFP-LRRK2[G2019S] mutant (human) (UniProt Q5S007); assay: SILAC mass spectrometry of GFP-binder immunoprecipitates from HEK-293 lysates; range told of the group of isoforms
[2] = biological target: wild type full-length GFP-LRRK2 (human) (UniProt Q5S007); assay: as above
[3] = biological target: T1, full length human FLAG-LRRK2 (wild type) (human, UniProt Q5S007 1-2527, phosphoserine at 860, 910, 935, 955, 973 and 976 (mass spectrometry)); assay: glutathione-Sepharose affinity purification of GST tagged 14-3-3 isoforms from HEK-293 cells expressing FLAG-LRRK2, anti-FLAG immunoblot
T1 construct: mature; also called full length LRRK2
Description: FIG. 2. […] A.) 5 mg of Swiss 3T3 lysate was subjected to immunoprecipitation with control IgG or anti-LRRK2 (S348C) antibody. Immunoprecipitates were resolved on 4-12% Novex SDS-polyacrylamide gel and immunoblotted with antibodies against LRRK2 (S374C), Hsp90 and pan 14-3-3. B.) 5 mg of Swiss 3T3 lysate was subjected to immunoprecipitation with anti-pan 14-3-3 antibodies and immunoprecipitates were resolved on 4-12% Novex SDS-polyacrylamide gels and immunoblotted with antibodies against pan-14-3-3 and LRRK2 (S374C). […] 36 hours post transfection cells were lysed and glutathione-Sepharose affinity purified proteins immunoblotted with anti-GST or anti-FLAG antibodies. D.) Fragments encoding the indicated domains of LRRK2 were transiently expressed in HEK-293 cells and immunoprecipitated with anti-FLAG antibodies. The immunoprecipitates were resolved on 4-12% Novex SDS-polyacrylamide gels and probed with either anti-FLAG antibodies or 14-3-3 overlay with digoxigenin labeled 14-3-3 in a far western assay. […] E.) Endogenous LRRK2 was immunoprecipitated from Swiss 3T3 cells with anti-LRRK2 (S348C) and subsequently treated with λ-phosphatase in the absence or presence of EDTA prior to immunoblot analysis with indicated antibodies or a 14-3-3 overlay assay. F.) As in E, except experiment undertaken with immunoprecipitated FLAG-LRRK2 obtained following transient transfection in HEK-293 cells.
Immunological procedures. Cell lysates (10-30 μg) were resolved by electrophoresis on SDS polyacrylamide gels or Novex 4-12% gradient gels, and electroblotted to nitrocellulose membranes. Membranes were blocked with 5% skimmed milk (w/v) in 50 mM Tris/HCl, pH 7.5, 0.15 M NaCl and 0.1% (v/v) Tween (TBST Buffer). For phospho-antibodies, primary antibody was used at a concentration of 1 μg/ml, diluted in 5% skimmed milk in TBST with the inclusion of 10 μg/ml dephosphorylated-peptide.

T1 sequence (Q5S007 whole entry, canonical isoform): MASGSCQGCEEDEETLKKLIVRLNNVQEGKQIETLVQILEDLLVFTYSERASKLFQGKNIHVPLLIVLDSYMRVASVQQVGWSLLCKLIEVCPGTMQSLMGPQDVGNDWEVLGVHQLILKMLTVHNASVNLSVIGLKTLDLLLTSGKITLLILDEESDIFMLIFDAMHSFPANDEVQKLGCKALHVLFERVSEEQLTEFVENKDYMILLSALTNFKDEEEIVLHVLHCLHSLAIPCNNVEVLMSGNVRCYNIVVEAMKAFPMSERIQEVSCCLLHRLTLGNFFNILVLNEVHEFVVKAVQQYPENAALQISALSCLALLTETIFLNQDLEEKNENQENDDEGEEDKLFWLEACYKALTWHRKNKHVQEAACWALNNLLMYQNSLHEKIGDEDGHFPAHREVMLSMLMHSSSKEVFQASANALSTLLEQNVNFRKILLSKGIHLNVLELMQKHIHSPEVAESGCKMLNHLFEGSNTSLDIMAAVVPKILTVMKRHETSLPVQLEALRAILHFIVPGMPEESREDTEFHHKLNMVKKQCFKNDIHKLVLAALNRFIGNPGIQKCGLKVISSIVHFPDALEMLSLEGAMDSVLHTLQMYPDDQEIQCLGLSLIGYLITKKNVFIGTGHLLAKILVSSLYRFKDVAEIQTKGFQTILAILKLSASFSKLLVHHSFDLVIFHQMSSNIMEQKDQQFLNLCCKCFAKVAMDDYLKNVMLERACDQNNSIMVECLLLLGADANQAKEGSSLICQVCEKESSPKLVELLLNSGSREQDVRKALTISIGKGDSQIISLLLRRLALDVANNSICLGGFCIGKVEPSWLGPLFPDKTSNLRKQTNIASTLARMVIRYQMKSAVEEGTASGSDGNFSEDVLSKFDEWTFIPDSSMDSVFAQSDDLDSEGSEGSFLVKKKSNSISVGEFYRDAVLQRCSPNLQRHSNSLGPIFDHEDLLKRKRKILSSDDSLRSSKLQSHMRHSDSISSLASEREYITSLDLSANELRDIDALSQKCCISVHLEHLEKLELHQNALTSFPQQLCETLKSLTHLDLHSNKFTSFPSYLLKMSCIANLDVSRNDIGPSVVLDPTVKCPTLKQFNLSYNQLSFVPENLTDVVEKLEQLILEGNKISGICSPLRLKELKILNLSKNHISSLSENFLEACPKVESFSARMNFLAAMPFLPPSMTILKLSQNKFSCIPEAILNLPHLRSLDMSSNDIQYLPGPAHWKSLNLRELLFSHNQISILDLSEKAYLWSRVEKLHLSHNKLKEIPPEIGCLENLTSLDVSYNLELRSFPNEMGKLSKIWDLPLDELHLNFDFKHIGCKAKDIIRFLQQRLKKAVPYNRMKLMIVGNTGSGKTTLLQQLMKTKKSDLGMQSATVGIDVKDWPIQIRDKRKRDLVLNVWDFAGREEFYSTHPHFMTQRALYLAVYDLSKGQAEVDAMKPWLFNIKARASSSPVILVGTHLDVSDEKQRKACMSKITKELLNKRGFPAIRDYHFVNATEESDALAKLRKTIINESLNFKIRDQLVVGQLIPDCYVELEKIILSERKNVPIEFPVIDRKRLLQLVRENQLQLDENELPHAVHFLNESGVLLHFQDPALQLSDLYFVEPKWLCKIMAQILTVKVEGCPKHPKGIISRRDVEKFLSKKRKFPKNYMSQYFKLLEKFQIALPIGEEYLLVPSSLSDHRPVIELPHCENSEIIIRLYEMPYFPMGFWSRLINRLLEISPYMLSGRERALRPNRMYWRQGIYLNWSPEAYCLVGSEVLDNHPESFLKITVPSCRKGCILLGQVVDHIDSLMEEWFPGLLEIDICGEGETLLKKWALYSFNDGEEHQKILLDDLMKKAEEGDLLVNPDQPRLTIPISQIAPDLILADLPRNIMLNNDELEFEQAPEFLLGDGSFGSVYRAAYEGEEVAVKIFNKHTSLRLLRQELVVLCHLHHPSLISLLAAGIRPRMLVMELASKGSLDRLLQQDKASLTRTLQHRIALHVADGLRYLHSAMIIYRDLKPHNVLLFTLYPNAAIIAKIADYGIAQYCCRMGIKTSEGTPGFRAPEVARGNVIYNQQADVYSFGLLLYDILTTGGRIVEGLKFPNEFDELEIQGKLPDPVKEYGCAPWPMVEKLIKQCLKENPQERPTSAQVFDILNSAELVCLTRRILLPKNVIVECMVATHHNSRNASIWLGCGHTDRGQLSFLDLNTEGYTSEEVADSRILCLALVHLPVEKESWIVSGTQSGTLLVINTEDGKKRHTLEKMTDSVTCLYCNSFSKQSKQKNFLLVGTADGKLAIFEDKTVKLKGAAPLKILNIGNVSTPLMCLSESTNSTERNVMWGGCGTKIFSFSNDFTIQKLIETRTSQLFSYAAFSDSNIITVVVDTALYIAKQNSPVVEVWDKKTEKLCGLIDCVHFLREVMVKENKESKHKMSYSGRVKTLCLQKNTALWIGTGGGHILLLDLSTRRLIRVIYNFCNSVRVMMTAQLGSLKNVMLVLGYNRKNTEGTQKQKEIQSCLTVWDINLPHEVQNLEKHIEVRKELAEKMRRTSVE
Sequence of wild type full-length GFP-LRRK2 (human) (Q5S007 whole entry, canonical isoform): as above
Sequence of full-length GFP-LRRK2[G2019S] mutant (human) (Q5S007 whole entry G2019S, canonical isoform): as the sequence (Q5S007 whole entry, canonical isoform) above, with G2019S counted along it

endogenous 14-3-3 in 293 cells
fold enrichment compared to GFP alone [1]: 10 to 30 fold
fold enrichment compared to GFP alone [2]: 10 to 30 fold

B1: GST tagged human 14-3-3 sigma (other)
chain: MERASLIQKAKLAEQAERYEDMAAFMKGAVEKGEELSCEERNLLSVAYKNVVGGQRAAWRVLSSIEQKSNEEGSEEKGPEVREYREKVETELQGVCDTVLGLLDSHLIKEAGDAESRVFYLKMKGDYYRYLAEVATGDDKKRIIDSARSAYQEAMDISKKEMPPTNPIRLGLALNFSVFHYEIANSPEEAISLAKTTFDEAMADLHTLSEDSYKDSTLIMQLLRDNLTLWTADNAGEEGGEAPQEPQS
notes: As for GST tagged 14-3-3 beta; also called atypical sigma isoform; not shown: GST tag from the pEBG plasmid
binding result [3]: no binding

B2: GST tagged human 14-3-3 theta (other)
chain: MEKTELIQKAKLAEQAERYDDMATCMKAVTEQGAELSNEERNLLSVAYKNVVGGRRSAWRVISSIEQKTDTSDKKLQLIKDYREKVESELRSICTTVLELLDKYLIANATNPESKVFYLKMKGDYFRYLAEVACGDDRKQTIDNSQGAYQEAFDISKKEMQPTHPIRLGLALNFSVFYYEILNNPELACTLAKTAFDEAIAELDTLNEDSYKDSTLIMQLLRDNLTLWTSDSAGEECDAAEGAEN
notes: As for GST tagged 14-3-3 beta; also called GST-14-3-3 theta; not shown: GST tag from the pEBG plasmid
binding result [3]: binds

B3: GST tagged human 14-3-3 eta (other)
chain: MGDREQLLQRARLAEQAERYDDMASAMKAVTELNEPLSNEDRNLLSVAYKNVVGARRSSWRVISSIEQKTMADGNEKKLEKVKAYREKIEKELETVCNDVLSLLDKFLIKNCNDFQYESKVFYLKMKGDYYRYLAEVASGEKKNSVVEASEAAYKEAFEISKEQMQPTHPIRLGLALNFSVFYYEIQNAPEQACLLAKQAFDDAIAELDTLNEDSYKDSTLIMQLLRDNLTLWTSDQQDEEAGEGN
notes: As for GST tagged 14-3-3 beta; also called GST-14-3-3 eta; not shown: GST tag from the pEBG plasmid
binding result [3]: binds

B4: GST tagged human 14-3-3 beta (other)
chain: MTMDKSELVQKAKLAEQAERYDDMAAAMKAVTEQGHELSNEERNLLSVAYKNVVGARRSSWRVISSIEQKTERNEKKQQMGKEYREKIEAELQDICNDVLELLDKYLIPNATQPESKVFYLKMKGDYFRYLSEVASGDNKQTTVSNSQQAYQEAFEISKKEMQPTHPIRLGLALNFSVFYYEILNSPEKACSLAKTAFDEAIAELDTLNEESYKDSTLIMQLLRDNLTLWTSENQGDEGDAGEGEN
notes: One of all seven isoforms of human 14-3-3 expressed from pEBG plasmids; also called GST-14-3-3 beta; not shown: GST tag from the pEBG plasmid
binding result [3]: binds

B5: GST tagged human 14-3-3 gamma (other)
chain: MVDREQLVQKARLAEQAERYDDMAAAMKNVTELNEPLSNEERNLLSVAYKNVVGARRSSWRVISSIEQKTSADGNEKKIEMVRAYREKIEKELEAVCQDVLSLLDNYLIKNCSETQYESKVFYLKMKGDYYRYLAEVATGEKRATVVESSEKAYSEAHEISKEHMQPTHPIRLGLALNYSVFYYEIQNAPEQACHLAKTAFDDAIAELDTLNEDSYKDSTLIMQLLRDNLTLWTSDQQDDDGGEGNN
notes: As for GST tagged 14-3-3 beta; also called GST-14-3-3 gamma; not shown: GST tag from the pEBG plasmid
binding result [3]: binds

B6: GST tagged human 14-3-3 zeta (other)
chain: MDKNELVQKAKLAEQAERYDDMAACMKSVTEQGAELSNEERNLLSVAYKNVVGARRSSWRVVSSIEQKTEGAEKKQQMAREYREKIETELRDICNDVLSLLEKFLIPNASQAESKVFYLKMKGDYYRYLAEVAAGDDKKGIVDQSQQAYQEAFEISKKEMQPTHPIRLGLALNFSVFYYEILNSPEKACSLAKTAFDEAIAELDTLSEESYKDSTLIMQLLRDNLTLWTSDTQGDEAEAGEGGEN
notes: As for GST tagged 14-3-3 beta; also called GST-14-3-3 zeta; not shown: GST tag from the pEBG plasmid
binding result [3]: binds

B7: GST tagged human 14-3-3 epsilon (other)
chain: MDDREDLVYQAKLAEQAERYDEMVESMKKVAGMDVELTVEERNLLSVAYKNVIGARRASWRIISSIEQKEENKGGEDKLKMIREYRQMVETELKLICCDILDVLDKHLIPAANTGESKVFYYKMKGDYHRYLAEFATGNDRKEAAENSLVAYKAASDIAMTELPPTHPIRLGLALNFSVFYYEILNSPDRACRLAKAAFDDAIAELDTLSEESYKDSTLIMQLLRDNLTLWTSDMQGDGEEQNKEALQDVEDENQ
notes: As for GST tagged 14-3-3 beta; also called GST-14-3-3 epsilon; not shown: GST tag from the pEBG plasmid
binding result [3]: binds
